Source: article PMC5680108 (Cellular microbiology, 2017)
Like-named read-outs stand apart in the source and are kept apart here.

Assays:
Test in all cases: ELISA
[1] = target: complement component C4b, human (human) (UniProt P0C0L4)
[2] = target: T1, complement component C4b, human (human, UniProt P0C0L4 20-675; P0C0L4 757-1446; P0C0L4 1454-1744)
[3] = target: T1, complement component C4b, human; remark: listed apart in the source

T1 sequence (P0C0L4 20-675, chain 1 of 3): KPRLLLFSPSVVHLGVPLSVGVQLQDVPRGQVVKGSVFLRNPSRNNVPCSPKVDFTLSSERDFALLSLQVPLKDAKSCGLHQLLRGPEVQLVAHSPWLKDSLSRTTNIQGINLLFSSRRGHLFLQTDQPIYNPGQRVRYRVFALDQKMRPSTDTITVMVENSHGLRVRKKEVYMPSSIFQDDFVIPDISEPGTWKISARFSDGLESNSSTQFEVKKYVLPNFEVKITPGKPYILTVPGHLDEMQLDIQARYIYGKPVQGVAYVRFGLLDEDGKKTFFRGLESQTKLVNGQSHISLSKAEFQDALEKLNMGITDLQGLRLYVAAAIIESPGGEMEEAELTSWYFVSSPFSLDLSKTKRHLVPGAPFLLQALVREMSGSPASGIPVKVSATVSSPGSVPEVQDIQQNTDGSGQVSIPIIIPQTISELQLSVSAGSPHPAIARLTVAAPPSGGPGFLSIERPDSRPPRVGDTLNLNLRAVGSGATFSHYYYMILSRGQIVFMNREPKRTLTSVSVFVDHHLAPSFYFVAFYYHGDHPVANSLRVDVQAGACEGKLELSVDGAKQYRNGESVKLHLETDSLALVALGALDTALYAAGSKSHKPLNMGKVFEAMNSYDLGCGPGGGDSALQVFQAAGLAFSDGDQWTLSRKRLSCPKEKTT
T1 sequence (P0C0L4 757-1446, chain 2 of 3): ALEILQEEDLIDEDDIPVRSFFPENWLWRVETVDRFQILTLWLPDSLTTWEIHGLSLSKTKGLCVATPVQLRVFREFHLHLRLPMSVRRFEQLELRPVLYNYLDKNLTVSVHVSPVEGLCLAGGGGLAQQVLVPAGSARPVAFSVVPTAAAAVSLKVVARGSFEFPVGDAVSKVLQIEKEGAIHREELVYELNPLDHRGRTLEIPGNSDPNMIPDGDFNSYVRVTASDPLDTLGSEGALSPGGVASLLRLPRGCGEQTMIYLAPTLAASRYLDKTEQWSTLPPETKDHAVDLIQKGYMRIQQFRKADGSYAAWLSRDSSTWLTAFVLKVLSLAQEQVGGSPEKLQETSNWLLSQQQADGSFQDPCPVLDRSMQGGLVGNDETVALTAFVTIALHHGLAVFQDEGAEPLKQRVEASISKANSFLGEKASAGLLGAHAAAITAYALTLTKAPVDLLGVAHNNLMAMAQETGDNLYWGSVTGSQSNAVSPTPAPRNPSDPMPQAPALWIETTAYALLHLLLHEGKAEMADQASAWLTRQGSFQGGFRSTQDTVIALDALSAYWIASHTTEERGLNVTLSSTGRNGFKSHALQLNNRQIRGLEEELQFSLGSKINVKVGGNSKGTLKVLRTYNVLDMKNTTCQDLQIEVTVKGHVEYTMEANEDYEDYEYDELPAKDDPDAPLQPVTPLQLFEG
T1 sequence (P0C0L4 1454-1744, chain 3 of 3): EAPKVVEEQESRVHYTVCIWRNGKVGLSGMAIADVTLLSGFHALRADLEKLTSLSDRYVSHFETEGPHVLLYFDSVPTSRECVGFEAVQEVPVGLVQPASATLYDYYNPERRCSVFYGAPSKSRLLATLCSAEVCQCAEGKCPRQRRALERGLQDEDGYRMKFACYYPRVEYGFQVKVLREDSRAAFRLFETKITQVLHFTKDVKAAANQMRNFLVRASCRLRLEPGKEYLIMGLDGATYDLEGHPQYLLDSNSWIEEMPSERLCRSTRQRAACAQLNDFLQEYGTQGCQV
complement component C4b, human (human), sequence (P0C0L4 20-675, chain 1 of 3): as the sequence (P0C0L4 20-675, chain 1 of 3) above
complement component C4b, human (human), sequence (P0C0L4 757-1446, chain 2 of 3): as the sequence (P0C0L4 757-1446, chain 2 of 3) above
complement component C4b, human (human), sequence (P0C0L4 1454-1744, chain 3 of 3): as the sequence (P0C0L4 1454-1744, chain 3 of 3) above

GST-tagged OspC from B. burgdorferi strain N40 clone D10/E9 (natural protein)
Kd [1]: 233 nM

B1: GST-OspCB31, GST fused to OspC from B. burgdorferi strain B31-A3 (natural protein)
chain: CNNSGKDGNTSANSADESVKGPNLTEISKKITDSNAVLLAVKEVEALLSSIDEIAAKAIGKKIHQNNGLDTENNHNGSLLAGAYAISTLIKQKLDGLKNEGLKEKIDAAKKCSETFTNKLKEKHTDLGKEGVTDADAKEAILKTNGTKTKGAEELGKLFESVEVLSKAAKEMLANSVKELTSPVVAESPKKP
Kd [2]: ~414 nM | Kd [3]: 476 nM
